The results in this text go back to patent publication US20220119506A1 (NOVOBIND LIVESTOCK THERAPEUTICS, published 2022).

Sequences and labels used below:
B1: NBX0840 (VHH)
VHH: QVQLQQSGGGLVQAGGSLRLSCAASGSIRSSNVMGWYRQTPGKQRELVATMTAGGLTNYADSVKGRFTISRDNAKNTVYLQMNSLKPEDTAVYYCHYRRIFNVYWGQGTQVTVSS
notes: on phage in the phage ELISA
B2: NBX0642 (VHH)
VHH: QVQLQQSGGGLVQAGGSLRLSCVASTVTFSRYAMGWFRQAPGKEREVVAGISGSGHRTYYGDFVKGRFTISRDNAKKTVYLQMNNLKPEDTAVYYCAGDLVAKFDSAYRVSYDSWGQGTQVTVSS
notes: on phage in the phage ELISA
B3: NBX0828 (VHH)
VHH: QVQLQESGGGAVQAGGSLRLSCAGPRSIFSGNAMAWYRQVPGKQRETVATVNTGGLTWYGDFVKGRFTISRDDAKNTLLLQMDSLKPEDTAVYYCNAVLVRARGMWGQGTQVTVSS
notes: on phage in the phage ELISA
B4: NBX0836 (VHH)
VHH: QVQLQQSGGGLVQPGGSLRLSCSASGIRLGSYVMGYYRQAPGKQRELVATVTSGGTTNRADSVKGRFTISRDNAKNAVYLQMNSLKPEDTAVYYCNARILFTNYWGQGTQVTVSS
notes: on phage in the phage ELISA
B5: NBX0648 (VHH)
VHH: QVQLQESGGGLVQAGGSLRLSCEASGIIFSSNVMGWYRQAPGKQRELVASRTSGGLTNYADSAKGRFTISRDNAKNTVYLQMNSLKPEDTAVYYCNARRLFTNYWGQGTQVTVSS
notes: on phage in the phage ELISA
B6: NBX0639 (VHH)
VHH: QVQLQESGGGLVQAGGSLRLSCAASGIVFSSIVMAWYRQAPGKQRELVASITNGGLVNSGDSVKGRFTISRDNAKNTVYLQMNSLKPEDTAVYYCNARRIMTSYWGQGTQVTVSS
notes: on phage in the phage ELISA
B7: NBX0643 (VHH)
VHH: QVQLQESGGGLVQAGGSLRLSCEASGSIFSGNVMGWYRQVPGKQRDLVATMTGGGVTRYADSVKARFTISRDNAKNTVYLQMNSLKPEDTGVYYCHYRRIMQQYWGQGTQVTVSS
notes: on phage in the phage ELISA
B8: NBX0645 (VHH)
VHH: QVQLQESGGGLVQAGGSLRLSCAASGSIFSGNVMGWYRQVPGKQRDLVATITGGGITHYADSVKGRFTISRDNAKNTVYLQMNSLKPEDTAVYYCLYRRIMQQYWGQGTQVTVSS
notes: on phage in the phage ELISA
B9: NBX0646 (VHH)
VHH: QVQLQESGGGLVQAGGSLRLSCAASGSIFSGNVMGWYRQVPGNQRELVATITGGGVTRYADSVKARFTISRDNAKNTVYLQMNSLKPEDTAVYYCHYRRIMQQSWGQGTQVTVSS
notes: on phage in the phage ELISA
B10: NBX0647 (VHH)
VHH: QVQLQESGGGSVPPGGSLRLSCAASGSIFSGNVMAWYRQVPGKQRDLVASMTGGGVTRYADSVIARFTISRDNVKNTVYLQMNSLKPEDTAVYYCHYRRIMQQYWGQGTQVTVSS
notes: on phage in the phage ELISA
B11: NBX0644 (VHH)
VHH: QVQLQESGGGLVQAGGSLRLSCAASGSIFSGNVMGWYRQVPGKQRDLVATITGGGITRYADSVKGRFTISRDNAKNKVYLQMNGLKPEDTAVYFCFYRRIMQQYWGQGTQVTVSS
notes: on phage in the phage ELISA
B12: NBX0650 (VHH)
VHH: QVQLQESGGGLVQAGGSLRLSCEASGSIFSGNVLGWYRQVPGKQRDLVATITGGGITRYADSVKGRFTISRDNAKNTVYLQMNALKPEDTAVYYCHYRRIMQQYWGQGTQVTVSS
notes: on phage in the phage ELISA
B13: NBX0844 (VHH)
VHH: QVQLQESGGGLAQTGDSLRLSCAASGRMFSGFVMGWYRQNPGKQRELVATITNGGLTHYGDSVKGRFTISRDNAKNTVYLQMNSLKSEDSAVYYCNARRLFTNYWGQGTQVTVSP
notes: on phage in the phage ELISA
B14: NBX0641 (VHH)
VHH: QVQLQESGGGLVQAGGSLRLSCAASGSISNSYVMGWYRQAPGKQRELVATITSGGLTNYAQSLKGRFTISRDNAKNTVYLQMTSLEPEDTAVYYCNARVIFTTYWGQGTQVTVST
notes: on phage in the phage ELISA
B15: NBX0649 (VHH)
VHH: QVQLQQSGGGLVQPGGSLTLSCAASGSIASGNVLGWYRQAPGKQRELVATITSGGLTHYKDSVKGRFTISRDNAKNMVFLQMNSLKPEDTAVYYCNYRRLATGYWGQGTQVTVSS
notes: on phage in the phage ELISA
B16: NBX0834 (VHH)
VHH: QVQLQESGGGSVQAGGSLRLSCAASESMFRDHNMGWYRQAPGKQRELVATISRGGLINYGDSVRGRFTISRDNAKNTIYLQMNSLKVEDTAVYYCNARRLLTTVWGQGTQVTVSP
notes: on phage in the phage ELISA
B17: NBX0841 (VHH)
VHH: QVQLQESGGGLVQAGGSLRLSCAASARTFIYKMGWFRQAPGKERDFVASIMWSVGNNYYYTDSAKGRFTISRDIAKNTMYLQMDSLEPEDTGEYYCAAATTSTQWRYWGQGTQVTVSS
notes: on phage in the phage ELISA
B18: NBX0607 (VHH)
VHH: QVQLQESGGGLVQAGGSLRLSCAASGGTFSRLTMGWFRQAPGEEREFVAAVSWVAETTDYADSVKGRFSISRDNSKNTVYLQMNSLKPVDTAVYYCAAGPRDMIRSRNIRSYDSWGQGTQVTVSS
notes: on phage in the phage ELISA
B19: NBX0629 (VHH)
VHH: QVQLQQSGGGLVQAGGSLRLSCAASGGTFSRLTIGWFRQAPGEERVFVAAVSWVAETTDYADSVKGRFSISRDNSKNTVYLQMNSLKPVDTAVYYCAAGPRDMIRSRNIRSYDSWGQGTQVTVSS
notes: on phage in the phage ELISA
B20: NBX0619 (VHH)
VHH: QVQLQQSGGGLVQAGGSLRLFCAASGGTFSRLTMGWFRQAPGEEREFVAAVSWVAETTDYADSVKGRFSISRDNSKNTVYLQMNNLKPVDTAVYYCAAGPRDMIRSRNIRSYDSWGQGTQVTVSS
notes: on phage in the phage ELISA
B21: NBX0632 (VHH)
VHH: QVQLQQSGGGLVQAGGSLRLSCAASGGTFSRLTMGWFRQAPGEEREFVAAVSWVAGTTDYADSVKGRFTISRDNSKNTVHLQMNSLKPVDTAVYYCAAGPRDMIRSRNIRSYDSWGQGTQVTVSS
notes: on phage in the phage ELISA
B22: NBX0401 (VHH)
VHH: QVQLQQSGGGLVRAGGSLRLSCETSGRTFSSYTMGWFRQAPGKEREFVGTIDWWSSSSSYADSVKGRFTISRDNAKNTVYLQMNSLKPEDTAVYYCAASGKYGLAYSRRDYAYWGQGTQVTVSS
notes: on phage in the phage ELISA
B23: NBX0616 (VHH)
VHH: QVQLQESGGGLVQAGGSLRLSCATSGLTFSSYAMGWFRQAPGKEREFVATISWSGKSTRYSDSVKGRFTISRDNAKNTVYLQMNSLKPEDTAVYYCAADYQRLGLLRVGVAEYDYWGQGIQVTVSS
notes: on phage in the phage ELISA
B24: NBX0635 (VHH)
VHH: QVQLQESGGGLVQAGGSLRLSCATSGLTFSNYAMGWFRQAAGKEREFVATISWSGKSTRYADSVKGRFTISRDNAKNTVDLRMNSLKPEDTAVYYCAAEYQRLGLLRDGVADYSYWGQGTQVTVSS
notes: on phage in the phage ELISA
B25: NBX0618 (VHH)
VHH: QVQLQESGGGLVQPGGSLRLSCAASGSIFSFNAMGWYRQAPGKQRELVAAITKGGSTSYADSVKGRFTISVDNAKNTVYLQMNSLTPEDTAVYYCNVKTLRSALFPGYEYWGQGTQVTVSS
notes: on phage in the phage ELISA
B26: NBX0849 (VHH)
VHH: QVQLQESGGGLVQAGGSLRLSCAASGRTFNRYAMGWFRQAPGKEREFVAAISWSGNTQYTDSVKGRFTISRDDAKNTVYLQMNSLKPEDTAVYYCALRIPASSSTTYYYADQYDYWGQGTQVTVSS
notes: on phage in the phage ELISA
B27: NBX0402 (VHH)
VHH: QVQLQQSGGSLVQAGGSLRLSCAASGLPFINYAMGWFRQAPGKDREIVAAIDWNGDSTYYAVSVKGRFTISRDNAKNTVTLQMNSLKPEDTAIYYCASHYQPYIRVSATRRFEADYWGQGTQVTVSS
notes: on phage in the phage ELISA
B28: NBX0403 (VHH)
VHH: QVQLQQSGGSLVQAGGSLRLSCAASGLPFINYAMGWFRQAPGKDREIVAAIDWNGDSTYYAVSVKGRFTISRDNAKNTVTLQMNSLKPEDTAIYYCAADYQPYIRVSATRRFEADYWGQGTQVTVSS
notes: on phage in the phage ELISA
B29: NBX0605 (VHH)
VHH: QVQLQESGGGLVQPGGALRLSCAASGSFFSIYAMAWYRQAPGKQRELVAGITSGSETNYADSVKGRFTISRDNAKNTVYLQMNSLKLEDTAVYYCNRWAPLTRLDYWGQGTQVTVSS
notes: on phage in the phage ELISA

The target in one test is T1, PirB (Vibrio parahaemolyticus).
T1 construct: also called JHE-like toxin PirB-like
T1 chain: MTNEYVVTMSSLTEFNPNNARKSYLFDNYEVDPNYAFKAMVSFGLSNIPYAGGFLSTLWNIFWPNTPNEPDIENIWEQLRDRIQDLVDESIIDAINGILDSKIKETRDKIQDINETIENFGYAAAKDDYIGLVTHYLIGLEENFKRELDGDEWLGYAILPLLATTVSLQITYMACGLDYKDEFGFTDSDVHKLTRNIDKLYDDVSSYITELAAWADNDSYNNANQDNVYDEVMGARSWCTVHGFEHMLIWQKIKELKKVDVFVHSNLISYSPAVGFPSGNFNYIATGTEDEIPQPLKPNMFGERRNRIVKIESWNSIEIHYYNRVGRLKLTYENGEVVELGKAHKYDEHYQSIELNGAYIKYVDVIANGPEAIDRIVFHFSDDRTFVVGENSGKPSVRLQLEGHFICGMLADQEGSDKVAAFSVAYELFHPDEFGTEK
The test is described as follows: phage ELISA, antigen-coated wells. A general note: ELISA stands for enzyme-linked immunosorbent assay.
Turning to B1, the “binding above PBS-coated wells” value was no less than 50%. Still for that read-out and setting: next, B2: no less than 50%. For B3, the “binding above PBS-coated wells” value was no less than 50%. Same read-out and setting: next, B4: no less than 50%; B5: no less than 50%; B6: no less than 50%. In the case of B7, the “binding above PBS-coated wells” value was no less than 50%.

Consider B8, for which the “binding above PBS-coated wells” value was no less than 50%. Turning to B9, the “binding above PBS-coated wells” value was no less than 50%. On the same count and under the same terms, next, B10: no less than 50%; B11: no less than 50%. Same read-out and setting: next, B12: no less than 50%; B13: no less than 50%. As for B14, the “binding above PBS-coated wells” value was no less than 50%. On the same count and under the same terms, next, B15: no less than 50%; B16: no less than 50%; B17: no less than 50%.

In a further test the target is T2, PirA (Vibrio parahaemolyticus).
T2 construct: also called JHE-like toxin PirA-like; vp19
T2 chain: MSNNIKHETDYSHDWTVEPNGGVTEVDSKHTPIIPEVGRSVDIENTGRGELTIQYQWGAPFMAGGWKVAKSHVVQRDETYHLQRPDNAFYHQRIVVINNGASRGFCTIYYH
The test can be described thus: phage ELISA, antigen-coated wells.
On to B18, for which the “binding above PBS-coated wells” value was no less than 50%. For B19, the “binding above PBS-coated wells” value was no less than 50%. The same measure, in the same setting: next, B20: no less than 50%; B21: no less than 50%; B22: no less than 50%. Still for that read-out and setting: next, B23: no less than 50%.

As to B24, the “binding above PBS-coated wells” value is no less than 50%. Take B25: the “binding above PBS-coated wells” value is no less than 50%. Take B26: the “binding above PBS-coated wells” value is no less than 50%. As for B27, the “binding above PBS-coated wells” value is no less than 50%.

With B28, the “binding above PBS-coated wells” value is no less than 50%. As to B29, the “binding above PBS-coated wells” value is no less than 50%.
